In patent US20260035450:

Biological target: T1, recombinant human ANGPTL3 (rhANGPTL3) (SEQ ID NO:1)
T1 chain: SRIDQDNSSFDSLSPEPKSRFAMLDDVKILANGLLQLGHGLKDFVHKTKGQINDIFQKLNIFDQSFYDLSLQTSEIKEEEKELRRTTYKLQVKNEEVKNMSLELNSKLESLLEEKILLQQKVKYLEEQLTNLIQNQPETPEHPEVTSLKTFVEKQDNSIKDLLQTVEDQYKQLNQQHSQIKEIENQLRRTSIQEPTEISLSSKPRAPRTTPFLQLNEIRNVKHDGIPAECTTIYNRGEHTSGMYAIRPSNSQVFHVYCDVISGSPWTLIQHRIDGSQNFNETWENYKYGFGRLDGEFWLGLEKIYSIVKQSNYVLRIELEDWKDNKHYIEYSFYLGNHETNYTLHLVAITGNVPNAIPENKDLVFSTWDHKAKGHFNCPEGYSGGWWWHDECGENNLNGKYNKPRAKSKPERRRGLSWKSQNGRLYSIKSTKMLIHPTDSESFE

B1: bovine LPL (protein)
chain: DRITGGKDFRDIESKFALRTPEDTAEDTCHLIPGVTESVANCHFNHSSKTFVVIHGWTVTGMYESWVPKLVAALYKREPDSNVIVVDWLSRAQQHYPVSAGYTKLVGQDVAKFMNWMADEFNYPLGNVHLLGYSLGAHAAGIAGSLTNKKVNRITGLDPAGPNFEYAEAPSRLSPDDADFVDVLHTFTRGSPGRSIGIQKPVGHVDIYPNGGTFQPGCNIGEALRVIAERGLGDVDQLVKCSHERSVHLFIDSLLNEENPSKAYRCNSKEAFEKGLCLSCRKNRCNNMGYEINKVRAKRSSKMYLKTRSQMPYKVFHYQVKIHFSGTESNTYTNQAFEISLYGTVAESENIPFTLPEVSTNKTYSFLLYTEVDIGELLMLKLKWISDSYFSWSNWWSSPGFDIGKIRVKAGETQKKVIFCSREKMSYLQKGKSPVIFVKCHDKSLNRKSG
  in vitro enzymatic activity of lipoprotein lipase (LPL), EnzChek Lipase substrate: The activity of bovine LPL is inhibited by addition of recombinant hANGPTL3 (rhANGPTL3)
